{"source": "patent US20240316196A1", "about": "“METHODS AND COMPOSITIONS FOR DIFFERENTIATION OF PLURIPOTENT STEM CELLS AND DERIVED NATURAL KILLER CELLS” (NUWACELL BIOTECHNOLOGIES CO., LTD., priority 2022, published 2024)", "key": {"K562 cells": {"system": "K562 cells", "assay": "Cytotoxicity of Stage 3 iNK cells towards K562 cells (CFSE/7AAD assay)", "assay_type": "cell-based", "settings": "added to Stage 3 medium (IL-10 20 ng/mL, IL-18 50 ng/mL); 4 hr co-culture, E:T 3:1 (FIG. 13A)", "procedure": "(§1) hiPSCs were prepared as described in CN108373998B. On Day −1, Embryoid body (EB) formation (Stage 1-1) was carried out by placing individualized hiPSCs in E8 medium containing 10 μM Blebbistatin in T25 flasks on a bellydancer and culture overnight. On Day 0, lateral mesoderm differentiation (Stage 1-2) was initiated by changing the medium to a Stage 1-2 differentiation medium comprising IF-4 basal medium and supplemented with BMP4 (25 ng/mL), VEGF (15 ng/mL), bFGF (0.5 ng/mL) and CHIR99021 (4 μM) for 2 days. On Day 2, lateral mesoderm differentiation (Stage 1-3) continued for 1 day in a Stage 1-3 differentiation medium comprising IF-4 basal medium and supplemented with BMP4 (25 ng/mL), VEGF (50 ng/mL) and bFGF (0.5 ng/mL) and CHIR99021 (1 μM). On Day 3, HE specification (Stage 1-4) was initiated by adding a Stage 1-4 differentiation medium comprising IF-4 basal medium and supplemented with VEGF (15 ng/mL), bFGF (5 ng/mL), XAV939 (5 μM) for 1 day. […] On Day 11 of co-culture, iNK cells were collected and stained with CD56-PE antibody (BD, #555516), the percentage of CD56+ cells was analyzed by flow cytometry. The cytotoxicity of Stage 3 iNK cells towards K562 cells was detected by CFSE/7AAD assay after 4 hr co-culture at E:T of 3:1."}, "iNK cells": {"system": "iNK cells", "assay": "Stage 3 expansion and maturation of immature iNK cells co-cultured with feeder cells", "assay_type": "cell-based, human", "settings": "IL-18 (10-50 ng/mL) with IL-2 (100 IU/mL) in Stage 3 vs IL-2 only, Day 14 of co-culture (FIG. 13B)", "procedure": "as §1, with “(15” for “(50”, “14” for “11”, “#555516), and” for “#555516),”, “cytometry.” for “cytometry. The cytotoxicity of Stage 3 iNK cells towards K562 cells was detected by CFSE/7AAD assay after 4 hr co-culture at E:T of 3:1.”\nhiPSCs were prepared as described in CN108373998B. […] D-1 and DO cells were analyzed by Microscopy. […] At the end of Stage 1-4, cells were analyzed by Microscopy and FACS. […] At the end of Stage 1-5, cells were analyzed by Microscopy and FACS. […]"}}, "data": [{"substance": "IL-18: interleukin added to Stage 3 expansion and maturation medium", "values": [{"measurement": "cytotoxicity of iNK cells towards K562 cells", "setting": "K562 cells", "result": "significantly improve"}, {"measurement": "expansion fold of iNK cells", "setting": "iNK cells", "result": "improve the expansion fold"}]}]}
